Data: US12570744 (AstraZeneca / MedImmune, dated 2026)

Legend:
[1] = biological target: T1, human PD-1 expressed on the cell surface of engineered Jurkat cells (human, UniProt Q15116 25-288); experiment: cell-based or functional assay
[2] = biological target: T2, human TIGIT expressed on the cell surface (human, UniProt Q495A1 22-244); experiment: cell-based or functional assay
T2 sequence (looked up): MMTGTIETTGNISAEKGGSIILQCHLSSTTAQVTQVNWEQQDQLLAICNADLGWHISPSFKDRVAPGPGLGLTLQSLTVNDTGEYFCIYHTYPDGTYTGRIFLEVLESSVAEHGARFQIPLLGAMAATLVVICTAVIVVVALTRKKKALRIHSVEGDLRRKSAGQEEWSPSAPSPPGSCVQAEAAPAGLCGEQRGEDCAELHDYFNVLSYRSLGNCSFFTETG

[3] = biological target: T3, human PD-1 and human TIGIT co-expressed on Jurkat PD-1^+TIGIT^+ cells (human, UniProt Q15116 25-288; Q495A1 22-244); experiment: cell-based or functional assay
T3 sequence (Q15116 25-288, one chain of several): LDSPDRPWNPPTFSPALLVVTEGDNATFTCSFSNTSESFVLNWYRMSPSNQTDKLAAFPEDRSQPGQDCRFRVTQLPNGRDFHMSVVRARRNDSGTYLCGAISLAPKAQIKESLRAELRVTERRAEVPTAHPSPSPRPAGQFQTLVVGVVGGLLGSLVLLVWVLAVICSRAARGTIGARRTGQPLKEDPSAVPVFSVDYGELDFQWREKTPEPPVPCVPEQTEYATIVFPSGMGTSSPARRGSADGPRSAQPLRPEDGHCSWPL

[4] = biological target: T1, human PD-1 expressed on the cell …; experiment: flow cytometry on PD-1^+ Jurkat cells
[5] = biological target: T2, human TIGIT expressed on the cell …; experiment: flow cytometry on TIGIT^+ Jurkat cells
[6] = biological target: T3, human PD-1 and human TIGIT co-expressed …; experiment: flow cytometry on PD-1^+TIGIT^+ Jurkat cells, mean
Excerpt: (§1) TIGIT⁻ cells. […] MFI=geometric mean fluorescence intensity; PD-1=programmed cell-death protein 1; TIGIT=T cell immunoreceptor with Ig and immunoreceptor tyrosine-based inhibitory motif domains. Cellular binding to human single expressing cell lines: Jurkat PD-1⁻ TIGIT⁺ and Jurkat PD-1⁺TIGIT⁻ or human double expressing Jurkat PD-1⁺ TIGIT⁺. Test and control article antibodies were detected with fluorescently conjugated goat anti human IgG secondary antibody and evaluated by flow cytometry.

[7] = biological target: T1, human PD-1 expressed on the cell …; experiment: flow cytometry on PD-1^+TIGIT^- Jurkat cells, mean
[8] = biological target: T2, human TIGIT expressed on the cell …; experiment: flow cytometry on PD-1^-TIGIT^+ Jurkat cells, mean
Excerpt: as §1

[9] = biological target: T1, human PD-1 expressed on the cell …; experiment: flow cytometry on PD-1^+ Jurkat cells, Experiment #1
[10] = biological target: T1, human PD-1 expressed on the cell …; experiment: flow cytometry on PD-1^+ Jurkat cells, Experiment #2
[11] = biological target: T2, human TIGIT expressed on the cell …; experiment: flow cytometry on TIGIT^+ Jurkat cells, Experiment #1
[12] = biological target: T2, human TIGIT expressed on the cell …; experiment: flow cytometry on TIGIT^+ Jurkat cells, Experiment #2
[13] = biological target: T3, human PD-1 and human TIGIT co-expressed …; experiment: flow cytometry on PD-1^+TIGIT^+ Jurkat cells, Experiment #2
Excerpt: as §1

[14] = biological target: T1, human PD-1 expressed on the cell …; experiment: flow cytometry on PD-1^+TIGIT^- Jurkat cells, Experiment #1
[15] = biological target: T1, human PD-1 expressed on the cell …; experiment: flow cytometry on PD-1^+TIGIT^- Jurkat cells, Experiment #2
[16] = biological target: T2, human TIGIT expressed on the cell …; experiment: flow cytometry on PD-1^-TIGIT^+ Jurkat cells, Experiment #1
Excerpt: as §1

[17] = biological target: T2, human TIGIT expressed on the cell …; experiment: flow cytometry on PD-1^-TIGIT^+ Jurkat cells, Experiment #2
Excerpt: as §1

[18] = biological target: T1, human PD-1 expressed on the cell …; experiment: flow cytometry on PD-1^+ Jurkat cells, mean of two experiments
[19] = biological target: T2, human TIGIT expressed on the cell …; experiment: flow cytometry on TIGIT^+ Jurkat cells, mean of two experiments
[20] = biological target: T4, cyTIGIT (cynomolgus TIGIT, recombinant) (cynomolgus, UniProt A0A7N9I9V4 89-209); experiment: SPR (BIAcore T200), PD-1/TIGIT DuetMab sample, cyTIGIT as ligand
T4 construct: Ligand in the BIAcore assay; The construct is not described
T4 sequence (A0A7N9I9V4 entry or part of it): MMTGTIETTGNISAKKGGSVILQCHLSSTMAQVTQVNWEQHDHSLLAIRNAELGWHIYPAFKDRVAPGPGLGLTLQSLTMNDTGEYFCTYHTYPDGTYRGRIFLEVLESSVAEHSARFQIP
Experimental: (§2) Binding experiments were carried out using a BIAcore T200 instrument (BIAcore).

[21] = biological target: T5, recombinant human TIGIT protein (human, UniProt Q495A1 22-141); experiment: SPR (BIAcore T200), PD-1/TIGIT DuetMab sample, huTIGIT as ligand
T5 construct: In the Octet assay it was used biotinylated on streptavidin sensors or in solution; Construct and tags are not described; also called huTIGIT; human TIGIT antigen
T5 sequence (looked up): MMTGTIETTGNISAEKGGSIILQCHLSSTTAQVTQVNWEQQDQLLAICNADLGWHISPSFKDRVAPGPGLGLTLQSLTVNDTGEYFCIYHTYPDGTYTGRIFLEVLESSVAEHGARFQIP
Experimental: as §2

[22] = biological target: T6, muTIGIT (mouse TIGIT, recombinant) (mouse (printed as 'mu'), UniProt P86176 29-148, limits assumed); experiment: SPR (BIAcore T200), PD-1/TIGIT DuetMab sample, muTIGIT as ligand
T6 construct: Ligand in the BIAcore assay; The construct is not described
T6 sequence (looked up): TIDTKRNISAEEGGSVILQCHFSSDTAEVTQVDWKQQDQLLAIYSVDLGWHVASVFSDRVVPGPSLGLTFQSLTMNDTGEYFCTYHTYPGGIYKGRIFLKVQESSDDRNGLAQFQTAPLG
Experimental: as §2

[23] = biological target: T3, human PD-1 and human TIGIT co-expressed …; experiment: flow cytometry on PD-1^+TIGIT^+ Jurkat cells, Experiment #1; PD-1^+TIGIT^+ Jurkat cells, Experiment #1
Excerpt: as §1

[24] = biological target: T2, human TIGIT expressed on the cell …; experiment: flow cytometry (MFI) on 293 cells overexpressing human TIGIT; Kd row of the table under the graph, the concentration axis is [nM]
[25] = biological target: T7, cynomolgus TIGIT overexpressed on 293 cells (cynomolgus, UniProt A0A7N9I9V4 89-312); experiment: flow cytometry (MFI) on 293 cells overexpressing cynomolgus TIGIT; Kd row of the table under the graph, the concentration axis is [nM]
T7 construct: whole, on cells
T7 sequence (A0A7N9I9V4 entry or part of it): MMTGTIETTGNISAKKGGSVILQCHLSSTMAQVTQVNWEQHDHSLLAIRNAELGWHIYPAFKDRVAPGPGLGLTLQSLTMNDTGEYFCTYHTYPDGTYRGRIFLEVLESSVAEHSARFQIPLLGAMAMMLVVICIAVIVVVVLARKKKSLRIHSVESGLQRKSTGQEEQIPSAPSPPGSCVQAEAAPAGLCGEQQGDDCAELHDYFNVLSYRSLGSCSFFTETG

T1 sequence (Q15116 25-288, change not shown): as the sequence (Q15116 25-288, one chain of several) above

- EC50 (nM), NFAT-luciferase reporter, Experiment #1 [1]: 4.7 nM
- EC50 (nM), NFAT-luciferase reporter, Experiment #2 [1]: 3.83 nM
- Fold Change of Mean EC50 vs. Anti-PD-1 [1]: 1.4 fold
- Mean EC50 (nM), NFAT-luciferase reporter [1]: 4.26 nM
- EC50 (nM), NFAT-luciferase reporter, Experiment #1 [2]: 17 nM
- EC50 (nM), NFAT-luciferase reporter, Experiment #2 [2]: 13.7 nM
- Fold Change of Mean EC50 vs. Anti-TIGIT [2]: 6.89 fold
- Mean EC50 (nM), NFAT-luciferase reporter [2]: 15.3 nM
- EC50 (nM), NFAT-luciferase reporter, Experiment #1 [3]: 5.57 nM
- EC50 (nM), NFAT-luciferase reporter, Experiment #2 [3]: 6.07 nM
- Fold Change of Mean EC50 vs. Anti-TIGIT and Anti-PD-1 combination [3]: 0.93 fold
- Mean EC50 (nM), NFAT-luciferase reporter [3]: 5.82 nM
- Fold Change vs. anti-PD-1 (mean EC50) [4]: 4.82 fold
- Fold Change vs. anti-TIGIT (mean EC50) [5]: 2.85 fold
- EC50 [6]: 0.632 nM
- EC50 [7]: 0.797 nM
- EC50 [8]: 0.314 nM
- EC50 [9]: 0.944 nM
- EC50 [10]: 5.49 nM
- EC50 [11]: 0.303 nM
- EC50 [12]: 0.375 nM
- EC50 [13]: 0.769 nM
- EC50 [14]: 0.584 nM
- EC50 [15]: 1.01 nM
- EC50 [16]: 0.282 nM
- EC50 [17]: 0.346 nM
- EC50 [18]: 3.22 nM
- EC50 [19]: 0.339 nM
- Kd [20]: 41.1 nM
- koff [20]: 0.0411 s⁻¹
- kon [20]: 999000 M⁻¹ s⁻¹
- Kd [21]: 0.015 nM
- koff [21]: 6.57e-05 s⁻¹
- kon [21]: 4.37e+06 M⁻¹ s⁻¹
- Kd [22]: 2.9 nM
- koff [22]: 0.00631 s⁻¹
- kon [22]: 2.17e+06 M⁻¹ s⁻¹
- EC50 [23]: 0.495 nM
- Kd [24]: 3.42 nM
- Kd [25]: 19.9 nM
B1: AZD2936 (PD-1/TIGIT bispecific DuetMab, LO115/VAR1 VHGL-VLGL(M-I)) (bispecific antibody, human IgG1, kappa, lambda)
heavy 1: EVQLVESGGGLVQPGGSLRLSCAASGFTFSDYGMHWVRQAPGKGLEWVAYISSGSYTIYSADSVKGRFTISRDNAKNSLYLQMNSLRAEDTAVYYCARRAPNSFYEYYFDYWGQGTTVTVSSASTKGPSVFPLAPSSKSTSGGTAALGCLVKDYFPEPVTVSWNSGALTSGVHTFPAVLQSSGLYSLSSVVTVPSSSLGTQTYICNVNHKPSNTKVDKRVEPKSCDKTHTCPPCPAPEFEGGPSVFLFPPKPKDTLMISRTPEVTCVVVDVSHEDPEVKFNWYVDGVEVHNAKTKPREEQYNSTYRVVSVLTVLHQDWLNGKEYKCKVSNKALPASIEKTISKAKGQPREPQVCTLPPSREEMTKNQVSLSCAVKGFYPSDIAVEWESNGQPENNYKTTPPVLDSDGSFFLVSKLTVDKSRWQQGNVFSCSVMHEALHNHYTQKSLSLSPGK
light 1: QIVLTQSPATLSLSPGERATLSCSASSKHTNLYWSRHMYWYQQKPGQAPRLLIYLTSNRATGIPARFSGSGSGTDFTLTISSLEPEDFAVYYCQQWSSNPFTFGQGTKLEIKRTVAAPSVFIFPPSDEQLKSGTASVVCLLNNFYPREAKVQWKVDNALQSGNSQESVTEQDSKDSTYSLSSTLTLSKADYEKHKVYACEVTHQGLSSPVTKSFNRGEC
heavy 2: not shown
light 2: not shown
notes: also called VAR1 (LO115/VHGL-VLGL(M-I)); VL GL (CDRL1 M-I) + VH GL
